Measured values reported in PMC8178753.

Legend:
[1] = test system: PkKKT2a central domain (551-679) (Perkinsela sp. CCAP 1560/4); assay: fluorescence anisotropy; settings: fluorescein (6-FAMK) in place of T37 of forward strand; 25 mM Hepes pH 7.5, 50 mM NaCl, 1 mM TCEP; FA: 1 nM FAM-dsDNA, 20 min RT, read at 25°C; EMSA: 200 nM dsDNA, 0.78-30 µM protein, 30 min RT, native PAGE at 4°C
[2] = test system: designed zinc finger (Jantz and Berg, 2010) (synthetic construct); assay: fluorescence anisotropy; settings: fluorescein (6-FAMK) in place of T9 of reverse strand; 25 mM Hepes pH 7.5, 50 mM NaCl, 1 mM TCEP; FA: 1 nM FAM-dsDNA, 20 min RT, read at 25°C; EMSA: 200 nM dsDNA, 0.78-30 µM protein, 30 min RT, native PAGE at 4°C

Row | Sequence | Kd [1] [nM] | Kd [2] [nM]
1 | AGGTAACTAGAAGAATTGTAATATTCTAAATGTTGATCCATTTGAATCAT (double strand) [50 mer 26% GC FAM (BA2216)] | 500 | –
2 | CAATATGTAAGGTGTTTTGGTGTAAAACACGCATTCTTGCATAACATGCA (double strand) [50 mer CEN FAM (BA1674)] | 500 | –
3 | CGATCGTTGAGGCAGAACCTGATCA (double strand) [designed DNA FAM (BA3083)] | – | 8
4 | CGCAGATCCGCGGGGCCCGTGCCGACGCGCGGGCATTGTCCGTGAGGTGA (double strand) [50 mer 74% GC FAM (BA2218)] | 500 | –
